The record followed here is patent publication US20240350586A1 (TSINGHUA UNIVERSITY, published 2024).

Experiment [1] deals with T1, GFP-CCT2 D3 (aa369-535 of CCT2) (human, UniProt P78371 369-535).
T1 construct: also called C-terminal one-third of CCT2; not shown: GFP tag
T1 sequence: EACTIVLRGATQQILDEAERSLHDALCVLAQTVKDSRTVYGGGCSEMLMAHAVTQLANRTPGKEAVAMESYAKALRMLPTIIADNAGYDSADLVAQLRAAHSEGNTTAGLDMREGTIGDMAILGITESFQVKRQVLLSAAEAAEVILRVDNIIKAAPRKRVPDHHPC
Nature of the experiment: co-IP of GFP-tagged CCT2 variants with T7-LC3C in HEK293T. From the text: The cells were permeabilized with digitonin before fixation. [0136] (G) Quantification of LC3 around Q103-HTT IB (mean±SEM) as shown in (F). […] [0137] […] The cells were permeabilized with digitonin before immunoblot analysis. LE, long exposure; SE, short exposure. [0138] (I) Quantification of normalized Q103-HTT (mean±SEM) in (H). […] [0139] […] The VLIR motif VIL is highlighted in red. [0140] […] The data are representative of three independent experiments. [0141] […] The cells were permeabilized with digitonin before fixation. [0142] (M) Quantification of LC3 around IBs (mean±SEM) as shown in (L). […] [0143] […] [0144] (O) Quantification of normalized Q103-HTT (mean±SEM) in (N).
Co-immunoprecipitation was performed essentially as described before. In brief, 24 h after transfection, the cells were collected and lysed on ice for 30 min in co-IP buffer (50 mM Tris/HCl pH 7.4, 150 mM NaCl, 1 mM EDTA, 0.5% NP40) with protease inhibitor mixture, and the lysates were cleared by centrifugation. The resulting supernatants were incubated with indicated agarose or magnetic beads and rotated at 4° C. for 3 h. The agarose was washed five times with co-IP buffer. As for the BFP-tagged Q103, the supernatants were incubated with rabbit anti-BFP antibodies and Protein A/G PLUS-Agarose according to the manufacturers' protocol. […]

In experiment [2] the target is T2, HA-CCT2 (chaperonin subunit CCT2, wild type, N-terminal HA tag) (human, UniProt P78371 2-535).
T2 construct: Expressed in HEK293T or U2OS from pFUGW-HA-CCT2; CCT genes were amplified from HEK293T cDNA; also called WT CCT2; HA-CCT2 WT; not shown: N-terminal HA tag
T2 sequence: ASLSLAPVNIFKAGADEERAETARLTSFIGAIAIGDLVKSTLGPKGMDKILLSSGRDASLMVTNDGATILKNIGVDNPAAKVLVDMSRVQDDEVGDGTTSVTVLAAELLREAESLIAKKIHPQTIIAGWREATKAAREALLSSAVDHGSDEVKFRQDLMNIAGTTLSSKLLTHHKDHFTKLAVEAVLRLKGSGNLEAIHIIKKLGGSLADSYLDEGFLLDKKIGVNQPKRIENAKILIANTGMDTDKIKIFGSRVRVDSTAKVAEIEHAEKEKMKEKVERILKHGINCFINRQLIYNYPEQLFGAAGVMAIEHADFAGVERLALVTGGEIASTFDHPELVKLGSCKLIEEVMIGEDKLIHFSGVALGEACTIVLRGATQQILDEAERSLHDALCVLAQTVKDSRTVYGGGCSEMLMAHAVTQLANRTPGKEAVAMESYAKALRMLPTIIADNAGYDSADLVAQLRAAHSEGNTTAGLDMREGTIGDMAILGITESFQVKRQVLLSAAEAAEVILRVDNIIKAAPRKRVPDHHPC
Nature of the experiment: co-IP of HA-CCT2 with T7-LC3C in HEK293T with knockdown of P62, NBR1 and TAX1BP1. The procedure:
The data are representative of three independent experiments. [0146] […] The data are representative of three independent experiments. [0147] […] The data are representative of three independent experiments. [0148] […] The interaction of the peptides with T7-GABARAP or T7-GABARAPL1 proteins was analyzed by in vitro pull-down. The data are representative of three independent experiments. [0149] […] The data are representative of three independent experiments. [0150] […] [0151] (K) Quantification of Q103-HTT-GFP area/DAPI area (mean±SEM) as shown in [0152] (J). 48 h represents IB accumulation stage and 72 h represents clearance stage. P values are indicated (two-tailed t test, >20 views from three independent experiments). [0153] […] The data are representative of three independent experiments. [0154] […] The data are representative of three independent experiments. [0155] […] The data are representative of three independent experiments.
Co-immunoprecipitation was performed essentially as described before. In brief, 24 h after transfection, the cells were collected and lysed on ice for 30 min in co-IP buffer (50 mM Tris/HCl pH 7.4, 150 mM NaCl, 1 mM EDTA, 0.5% NP40) with protease inhibitor mixture, and the lysates were cleared by centrifugation. The resulting supernatants were incubated with indicated agarose or magnetic beads and rotated at 4° C. for 3 h. The agarose was washed five times with co-IP buffer.

B1: T7-LC3C (expressed in cells) (other, UniProt Q9BXW4 1-126, looked up)
chain: MPPPQKIPSVRPFKQRKSLAIRQEEVAGIRAKFPNKIPVVVERYPRETFLPPLDKTKFLVPQELTMTQFLSIIRSRMVLRATEAFYLLVNNKSLVSMSATMAEIYRDYKDEDGFVYMTYASQETFG
notes: Expressed from pCDNA3-T7-LC3C; not shown: T7 tag
For B1, the binding result in experiment [1] and in experiment [2] was “binds” throughout.
